One experiment concerns the target Rab6 (Homo sapiens) (UniProt P20340). Conditions: cited from earlier work.
The target in experiment [1] is BicD2-CTD (C-terminal cargo binding domain of human BicD2, residues 715-804) (human). In words: SEC-MALS. In general terms: Size exclusion chromatography separates by hydrodynamic size, large species first.
The target is the same in experiment [2]. The experiment in a line: ITC.

Here are results for 6 substances from paper PMC6520106.

By Kd is commonly meant the free concentration of one partner at which half of the binding sites on the other are occupied at equilibrium, for simple one-to-one binding. Broadly, the stoichiometry N is a count of units in the complex or per binding partner.

UniProt P20340, sequence (P20340 2-208): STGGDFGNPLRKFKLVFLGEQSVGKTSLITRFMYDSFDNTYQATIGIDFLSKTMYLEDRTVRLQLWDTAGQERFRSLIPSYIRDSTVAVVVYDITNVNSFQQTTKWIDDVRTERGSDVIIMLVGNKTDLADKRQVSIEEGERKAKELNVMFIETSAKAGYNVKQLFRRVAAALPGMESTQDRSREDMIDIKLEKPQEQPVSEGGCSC

Take BicD2 (from UniProt Q8TD16): the Kd with Rab6 (Homo sapiens) is 1 µM. “BicD2-CTD (C-terminal cargo binding domain of human BicD2, residues 715-804) (domain or fragment)”: the stoichiometry N in experiment [1] was 2. In experiment [2], “Nup358-RBD2 (residues 2006-2443 of human Nup358) (domain or fragment)” displayed a dissociation constant Kd of 0.5 µM and a dH of -14.9 kcal/mol. This substance had a stoichiometry N (binder per target (2:2 complex)) in experiment [1] of 1. “Nup358-RBD2/RanGTP complex (from UniProt P62826 1-216)”: in experiment [2], the Kd worked out at 3.8 µM and the dH was -12.8 kcal/mol. As for “Rab6^GTP (full-length human Rab6a Q72L, GTP-locked) (from UniProt P20340 1-208) (natural protein)”, in experiment [2], the Kd was determined as 12.6 µM. The substance also showed a stoichiometry N (binder per target (2:2 complex)) in experiment [1] of 1.

For the substance “Rab6^GTPmin (human Rab6a Q72L, residues 13-174) (from UniProt P20340 13-174) (domain or fragment)”, the Kd in experiment [2] amounted to 12 µM.
